In article PMC6019326:
Read-outs that look alike come from different tables or passages of the source.

What was measured:
Experiment in all cases: SPR
[1] = biological target: recombinant APOL1 G1 protein (His-tag fused, risk variant) (human) (UniProt O14791)
[2] = biological target: recombinant APOL1 G2 protein (His-tag fused, risk variant) (human) (UniProt O14791)
[3] = biological target: recombinant APOL1 G1 protein (His-tag fused, risk variant) (human) (UniProt O14791); remark: listed apart in the source
[4] = biological target: recombinant APOL1 G2 protein (His-tag fused, risk variant) (human) (UniProt O14791); remark: listed apart in the source
[5] = biological target: recombinant APOL1 G0 protein (His-tag fused, reference allele) (human) (UniProt O14791)

Row | Substance | KD for suPAR in the presence of αvβ3 integrin (5 nM) with Mn2+ [1] | KD for suPAR in the presence of αvβ3 integrin (5 nM) with Mn2+ [2] | Kd [1] | Kd [2] | Kd [3] | Kd [4] | Kd [5]
1 | human suPAR (soluble urokinase plasminogen activator receptor), recombinant (from UniProt Q03405 23-305) | 0.277 µM | 0.024 µM | – | – | – | – | –
2 | human integrin α3β1 (from UniProt P26006 33-1051; P05556 21-728) (complex) | – | – | > 1000 µM | > 1000 µM | – | – | –
3 | human recombinant protein integrin αvβ3 (from UniProt P06756 31-1048; P05106 27-718) (complex) | – | – | 0.528 µM | 10.7 µM | 0.007 µM | 0.007 µM | 0.574 µM
